What was measured:
[1] = target: recombinant soluble TACE ECD (human) (UniProt P78536); test: SPR
[2] = target: soluble TACE M-domain (wild type) (Homo sapiens) (UniProt P78536); test: SPR

Kd [1]: 2 nM | Kd [2]: 2.3 nM
Substance: MEDI3622 (antibody)

From article PMC5098442
